Molecular target: NOT9 module of the human CCR4-NOT complex (human) (UniProt Q92600)

B1: MBP-RNF219-C (residues 434-726) with a C-terminal StrepII tag (domain or fragment)
chain: SSNVSNKDSSEDDISRSENEKKSECFSSPKTGFWDCCSTSYAQNLDFESSEGNTIANSVGEISSKLSEKSGLCLSKRLNSIRSFEMNRTRTSSEASMDAAYLDKISELDSMMSESDNSKSPCNNGFKSLDLDGLSKSSQGSEFLEEPDKLEEKTELNLSKGSLTNDQLENGSEWKPTSFFLLSPSDQEMNEDFSLHSSSCPVTNEIKPPSCLFQTEFSQGILLSSSHRLFEDQRFGSSLFKMSSEMHSLHNHLQSPWSTSFVPEKRNKNVNQSTKRKIQSSLSSASPSKATKS
With B1 the inhibition of deadenylation by 50 nM CCR4-NOT MINI (50 nM 7-mer-A20 RNA, stopped after 32 min), MBP-RNF219-C titrated 0.05-5.0 µM; inhibition already apparent at 0.05 µM was 2.5 µM.
